Data on 1 substance can be found in US20070231324A1.

The target of this assay is CD20 (human) (UniProt P11836). Kind of assay: FACS staining of Ramos, Daudi, Raji and BJAB B lymphoma cells.
Sequence of UniProt P11836 (P11836 whole entry): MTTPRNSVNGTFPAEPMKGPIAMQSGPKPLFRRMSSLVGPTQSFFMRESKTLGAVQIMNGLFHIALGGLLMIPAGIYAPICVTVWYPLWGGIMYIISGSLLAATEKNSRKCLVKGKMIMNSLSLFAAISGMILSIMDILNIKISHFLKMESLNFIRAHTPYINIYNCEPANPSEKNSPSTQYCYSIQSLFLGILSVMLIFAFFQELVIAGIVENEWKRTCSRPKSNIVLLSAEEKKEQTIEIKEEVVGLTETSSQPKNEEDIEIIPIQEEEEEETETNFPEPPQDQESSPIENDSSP

As for “RITUXAN® (rituximab), monoclonal antibody specific for CD20”, the mean fluorescence shift lay in the range of 5 to 15 units.
